Assay results published in US20040005647A1 (University of California, published 2004).
“And” between values parts separate entries of the source, which are not always exact repeats. Identical values can stand only once.

Legend:
[1] = target: T1, MUC-1 antigen expressed on MCF-7 human breast adenocarcinoma cells (human, UniProt P15941 24-1255); assay: competitive ELISA regression, second experiment
T1 construct: whole, on cells; Scatchard analysis and immunocytochemistry used MCF-7 cells; also called MUC-1 mucin; MUC-1 membrane antigen
T1 sequence (P15941 24-1255): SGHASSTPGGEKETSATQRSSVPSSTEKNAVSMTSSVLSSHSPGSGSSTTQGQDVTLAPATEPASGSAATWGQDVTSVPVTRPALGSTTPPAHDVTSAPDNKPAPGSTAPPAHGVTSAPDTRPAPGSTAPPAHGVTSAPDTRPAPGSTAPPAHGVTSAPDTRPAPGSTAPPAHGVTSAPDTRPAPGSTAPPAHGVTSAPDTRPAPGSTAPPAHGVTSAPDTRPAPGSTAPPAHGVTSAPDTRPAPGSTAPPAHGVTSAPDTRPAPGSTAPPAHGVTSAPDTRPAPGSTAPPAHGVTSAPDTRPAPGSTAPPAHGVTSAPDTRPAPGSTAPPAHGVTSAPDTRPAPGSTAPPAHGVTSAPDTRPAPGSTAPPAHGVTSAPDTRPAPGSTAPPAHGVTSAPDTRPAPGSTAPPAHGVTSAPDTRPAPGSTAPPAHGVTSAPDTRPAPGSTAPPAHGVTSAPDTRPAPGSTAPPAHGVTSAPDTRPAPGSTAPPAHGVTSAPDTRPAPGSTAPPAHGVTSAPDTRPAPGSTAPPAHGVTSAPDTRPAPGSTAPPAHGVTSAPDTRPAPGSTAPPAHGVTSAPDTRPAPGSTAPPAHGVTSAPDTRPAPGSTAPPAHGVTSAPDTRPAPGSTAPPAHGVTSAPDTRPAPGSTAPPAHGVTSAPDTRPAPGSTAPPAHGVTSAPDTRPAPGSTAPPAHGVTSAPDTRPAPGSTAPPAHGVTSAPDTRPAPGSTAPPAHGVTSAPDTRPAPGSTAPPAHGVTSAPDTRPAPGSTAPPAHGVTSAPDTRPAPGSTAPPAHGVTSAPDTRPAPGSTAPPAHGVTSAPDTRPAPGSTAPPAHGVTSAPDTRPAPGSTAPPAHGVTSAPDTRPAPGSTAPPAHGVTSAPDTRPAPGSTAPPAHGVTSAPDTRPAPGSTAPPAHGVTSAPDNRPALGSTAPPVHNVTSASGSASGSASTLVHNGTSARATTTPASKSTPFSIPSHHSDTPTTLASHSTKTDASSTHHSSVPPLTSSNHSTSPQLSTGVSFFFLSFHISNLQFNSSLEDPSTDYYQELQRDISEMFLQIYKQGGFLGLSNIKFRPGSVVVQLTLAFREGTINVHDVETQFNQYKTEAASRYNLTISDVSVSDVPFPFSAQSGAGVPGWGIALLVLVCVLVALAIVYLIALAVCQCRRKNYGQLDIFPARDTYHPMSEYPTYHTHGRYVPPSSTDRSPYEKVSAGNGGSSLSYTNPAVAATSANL
Procedure: (§1) Competitive ELISA analysis was performed in triplicate at each concentration. Incubations were carried out at 37EC for 1.5 hrs. Following each incubation, the plates were washed with PBS pH 7.4 containing 0.5% Tween 20 followed by PBS washes alone. Pro-Bind™ ELISA assay plates (Becton Dickinson Labware, Franklin Lakes, N.J.) were coated overnight at room temperature with the MCF-7 cell lysate (200 μg/well) in 15 mM sodium bicarbonate buffer pH 9.6. The ELISA plates were rinsed with PBS and blocked with PBS containing 3.0% dried non-fat milk for 1 hr. at room temperature. Ten percent bovine serum albumin (BSA) was used as a negative control. In a separate plate, soluble scFv containing 10% Tween 20 were prepared and stored on ice for 15 minutes. MCF-7 cell Tysate used as the competitor was diluted in 3% non-fat milk to provide the following concentrations 100 nM, 10 nM and 1 nM. The soluble scFv was transferred to the ELISA plate and incubated with the competitor. 100 μl of anti-E-tag diluted 1:250 in 3% non-fat milk solution was added to the wells and the plate incubated. The plate was developed with 2,2′-Amino-bis-3-ethylbenzthiazoline-6-sulfonic acid (ABTS) (Sigma-Aldrich, St. Louis, Mo.) containing 0.3% H₂O₂. The plate was read using a microplate reader at an absorbency of A₄₀₅ nM (Dynex, Chantilly, Va.). Data was generated from three separate trials and analyzed.

[2] = target: T1, MUC-1 antigen expressed on MCF-7 human …; assay: competitive ELISA regression, third experiment (not statistically significant)
Procedure: as §1

[3] = target: T1, MUC-1 antigen expressed on MCF-7 human …; assay: competitive ELISA: scFv on plated MCF-7 lysate, soluble MCF-7 lysate (MUC-1) as competitor at 1 nM
Procedure: as §1

[4] = target: T1, MUC-1 antigen expressed on MCF-7 human …; assay: immunohistochemistry on a section of the same prostate cancer; biotinylated anti-mouse antibody and colour reagent
Description: FIG. 4 illustrates staining of prostate cancer using three of the scFv described herein. The scFv is placed on the tissue on the slide and then washed off followed with a biotinylated anti mouse antibody for reaction with any bound scFv and then with a color reagent.

[5] = target: T1, MUC-1 antigen expressed on MCF-7 human …; assay: linear regression of competitive ELISA data
Procedure: as §1

[6] = target: T1, MUC-1 antigen expressed on MCF-7 human …; assay: competitive ELISA regression, estimates of single experiments
Procedure: as §1

[7] = target: T1, MUC-1 antigen expressed on MCF-7 human …; assay: Scatchard analysis, 125I-12E scFv on MCF-7 cells with unlabeled competitor; 25 kD fraction, monovalent
[8] = target: T1, MUC-1 antigen expressed on MCF-7 human …; assay: Scatchard analysis, 125I-12E scFv on MCF-7 cells with unlabeled competitor; 42 kD fraction, diabody (divalent)

B1: anti-MUC-1 C4 scFv (scFv)
scFv: QVQLQESGPGLVQPSQSLSITCTVSGFSLTAYGVHWIRQSPGKGLEWLGVIWSGGGTDYNPAFISRLNINKDNSKSQVFFKVDSLQLDDRGIYYCVRRNGYFFDSWGQGTTVTVSSSGRFSGGGSGGGGSDIELTQSPASLLCLWGRGPPSHAGPTMVVSTSGYNFIYWSQQKPGQSPKLLIYLSSNLESGVPARVSGSGSRTYFTLNIHPVEEEDAATFYCRHTRELPCTFGGRTKLEIKRAAAGAPVPYPDPLEPRAA
Ka [1]: 2.3e+08 M⁻¹
Ka [2]: 1.01e+09 M⁻¹
percent inhibition of binding with 1 nM of competitor [3]: 94%

B2: B5 scFv (scFv)
scFv: MAQVKLQESGAELVRPGASVTLSCKASGYTFTDYEMHWVKQTPVHGLEWIGAIDPETGGTAYNQKFKGKATLTADKSSSTAYMELRSLTSEDSAVYYCTRDGYYAWFAYWGQGTTVTVSSGGGGLGGGGSGGGGSDIELTQSPAIMSASPGERVTMTCSASSSIRYIYWYQQKPGSSPRLLIYDTSNVAPGVPFRFSGSGSGTSYSLTINRMEAEDAATYYCQEWSGYPYTFGGGTKLELKRAAAGAPVPYPDPLEPRAA
notes: The sheet prints only the panel letter G
binding result [4]: binds

B3: anti-MUC-1 3D scFv (scFv, V domains shown)
VH: QVKLQESGPEVVKPGASVKLSCKASGYIFTSYDIDWVRQTPEQGLEWIGWIFPGEGSTEYNEKFKGRATLSVDKSSSTAYMELTRLTSEDSAVYFCARGDYYRRYFDLWGQGTTVTVSS
notes: After the linker stands a short composite of N- and C-terminal pieces of a VL, with no light-chain loops; also called clone 3D
Ka [5]: 2.2e+08 M⁻¹ and > 1e+08 M⁻¹
Ka [6]: 1.2e+08 to 1.5e+08 M⁻¹
percent inhibition of binding with 1 nM of competitor [3]: 50%

B4: anti-MUC-1 12E scFv (scFv)
scFv: QVKLQQSGTEVVKPGASVKLSCKASGYIFTSYDIDWVRQTPEQGLEWIGWIFPGEGSTEYNEKFKGRATLSVDKSSSTAYMELTRLTSEDSAVYFCARGDYYRRYFDLWGQGTTVTVSSRGGGSGGGGSGGGGSDIELTQSPAIMSASPGERVTMTCSASSSIRYIYWYQQKPGSSPRLLIYDTSNVAPGVPFRFSGSGSGTSYSLTINRMEAEDAATYYCQEWSGYPYTFGGGTKLELKRAAAGAPVPYPDPLEPRAA
notes: As printed it begins with a vector leader and ends with the E-tag; Mouse scFv from pCANTAB 5E, expressed in E. coli; also called clone 12E
Ka [5]: 1.7e+08 M⁻¹ and > 1e+08 M⁻¹
percent inhibition of binding with 1 nM of competitor [3]: 50%

B5: 125I-anti-MUC-1 12E scFv, 25 kD fraction (monovalent) (scFv)
scFv: B4 scFv
modifications: 125I-labelled (Chloramine T method)
notes: HPLC (SEC-2000) fraction of iodinated 12E scFv, representative of the monovalent scFv; also called monomeric form of the 12E scFv
Ka [7]: 8.6e+07 M⁻¹

B6: 125I-anti-MUC-1 12E scFv, 42 kD fraction (divalent, considered a diabody) (scFv)
scFv: B4 scFv
modifications: 125I-labelled (Chloramine T method)
notes: HPLC (SEC-2000) fraction of iodinated 12E scFv, considered to be a diabody (divalent); also called bivalent form of the 12E scFv
Ka [8]: ~1.7e+08 M⁻¹
